Source: the Immune Epitope Database (IEDB)

Key:
Experiment in all cases: IEDB peptide-MHC binding, purified MHC/competitive/radioactivity; filed as Kd, often an IC50 or EC50 that approximates it; ≥ and ≤ were set here for values at or beyond the usual limits of such assays
HLA-A*11:01 = biological target: HLA-A*11:01
HLA-A*68:01 = biological target: HLA-A*68:01
HLA-A*33:01 = biological target: HLA-A*33:01
HLA-A*03:01 = biological target: HLA-A*03:01
HLA-A*31:01 = biological target: HLA-A*31:01
[1] = source organism: Dengue virus 3 Martinique/1243/1999
[2] = source organism: Vaccinia virus WR
[3] = source organism: Dengue virus 4 Philippines/H241/1956
[4] = source organism: SARS coronavirus Tor2
[5] = source organism: Mammarenavirus juninense
[6] = source organism: Mammarenavirus machupoense
[7] = source organism: Dengue virus 1 Brazil/97-11/1997
[8] = source organism: Mammarenavirus brazilense
[9] = source organism: Dengue virus 2 Jamaica/1409/1983
[10] = source organism: Mammarenavirus whitewaterense
[11] = source organism: Lymphocytic choriomeningitis virus (strain Armstrong)

Sequence | Kd (HLA-A*68:01; [2]) | Kd (HLA-A*33:01; [2]) | Kd (HLA-A*03:01; [2]) | Kd (HLA-A*31:01; [2]) | Kd (HLA-A*11:01; [2]) | also measured
AAIDGEYRLK | – | – | – | – | – | Kd (HLA-A*11:01; [1]): 349 nM
AIDRQVSVK | 11300 nM | ≥ 77.7 µM | 144 nM | 4370 nM | 42.1 nM | –
AIKILTGFR | – | – | – | – | – | Kd (HLA-A*31:01; [3]): 54.7 nM
ALALLLLDR | – | – | – | – | – | Kd (HLA-A*68:01; [4]): ≥ 52900 nM; Kd (HLA-A*33:01; [4]): ≥ 51.7 µM; Kd (HLA-A*03:01; [4]): 3150 nM; Kd (HLA-A*31:01; [4]): 8000 nM; Kd (HLA-A*11:01; [4]): 7530 nM
ALYEQVVMDY | – | – | – | – | – | Kd (HLA-A*68:01; [4]): ≥ 32500 nM; Kd (HLA-A*33:01; [4]): ≥ 27.1 µM; Kd (HLA-A*03:01; [4]): 348 nM; Kd (HLA-A*31:01; [4]): ≥ 44600 nM; Kd (HLA-A*11:01; [4]): 3430 nM
ALYYVHSLLY | 2240 nM | ≥ 24.2 µM | 0.39 nM | 11200 nM | 9.2 nM | –
AMYYAVLSEY | 982 nM | 5.19 µM | ≤ 1 nM | 2850 nM | 89.8 nM | –
ASILSLETVK | 1770 nM | ≥ 70 µM | 4700 nM | 12800 nM | 25.4 nM | –
ATKRYPGVMY | ≥ 70200 nM | ≥ 70 µM | 32.8 nM | 18100 nM | 164 nM | –
AVAKCNLNH | – | – | – | – | – | Kd (HLA-A*68:01; [5]): ≥ 46500 nM; Kd (HLA-A*03:01; [5]): 84.6 nM; Kd (HLA-A*31:01; [5]): 688 nM; Kd (HLA-A*11:01; [5]): 230 nM
DAVRAFLLR | 0.831 nM | 0.0234 µM | ≥ 34400 nM | 484 nM | 13700 nM | –
DTNLITCNDH | – | – | – | – | – | Kd (HLA-A*68:01; [6]): ≥ 70100 nM; Kd (HLA-A*33:01; [6]): ≥ 30.8 µM; Kd (HLA-A*03:01; [6]): ≥ 70000 nM; Kd (HLA-A*31:01; [6]): ≥ 70000 nM; Kd (HLA-A*11:01; [6]): ≥ 69700 nM
DTPSPPEVER | – | – | – | – | – | Kd (HLA-A*68:01; [7]): 610 nM
EFIFSALDEK | 1.3 nM | 1.63 µM | 15.5 nM | ≥ 70000 nM | 1.42 nM | –
ELAELLEMK | 13.3 nM | 1.21 µM | 3800 nM | 15900 nM | 1270 nM | –
EMILMKMKK | – | – | – | – | – | Kd (HLA-A*68:01; [3]): 74.2 nM
EVMRSRWSR | – | – | – | – | – | Kd (HLA-A*68:01; [7]): 13.1 nM; Kd (HLA-A*33:01; [7]): 0.00412 µM
FIFSLKDTLK | – | – | – | – | – | Kd (HLA-A*68:01; [1]): 54.1 nM
FIMAYVNQAH | – | – | – | – | – | Kd (HLA-A*68:01; [8]): 3450 nM; Kd (HLA-A*33:01; [8]): 14.5 µM; Kd (HLA-A*03:01; [8]): ≥ 20300 nM; Kd (HLA-A*31:01; [8]): ≥ 30200 nM; Kd (HLA-A*11:01; [8]): ≥ 42700 nM
FIVPEFAKQY | 11300 nM | ≥ 70 µM | ≥ 70100 nM | ≥ 70000 nM | ≥ 69800 nM | –
FLISGKGIGK | – | – | – | – | – | Kd (HLA-A*03:01; [1]): 53.2 nM
FMLIFNVKSK | 37.7 nM | 19.4 µM | 211 nM | 6050 nM | 3430 nM | –
GFLSRNKKPR | – | – | – | – | – | Kd (HLA-A*33:01; [7]): 1.77 µM
GILARWSSFK | – | – | – | – | – | Kd (HLA-A*03:01; [7]): 2.06 nM; Kd (HLA-A*11:01; [7]): 29.4 nM

Sequence | Kd (HLA-A*68:01; [2]) | Kd (HLA-A*33:01; [2]) | Kd (HLA-A*03:01; [2]) | Kd (HLA-A*31:01; [2]) | Kd (HLA-A*11:01; [2]) | also measured
GLLSGQGPMK | – | – | – | – | – | Kd (HLA-A*03:01; [7]): 2.62 nM
GTMKIKDEER | – | – | – | – | – | Kd (HLA-A*68:01; [7]): 165 nM
GTVTMECSPR | – | – | – | – | – | Kd (HLA-A*68:01; [9]): 89 nM
GVAMPNLYK | – | – | – | – | – | Kd (HLA-A*68:01; [4]): 6.9 nM; Kd (HLA-A*33:01; [4]): 14.8 µM; Kd (HLA-A*31:01; [4]): 1650 nM
GVFKNPCTSH | – | – | – | – | – | Kd (HLA-A*68:01; [10]): ≥ 26000 nM; Kd (HLA-A*33:01; [10]): ≥ 70 µM; Kd (HLA-A*03:01; [10]): 6290 nM; Kd (HLA-A*31:01; [10]): ≥ 30100 nM; Kd (HLA-A*11:01; [10]): 2690 nM
IILFILFFAY | 325 nM | 2.57 µM | 720 nM | 1330 nM | 11100 nM | –
IISRTRLYDY | 4360 nM | ≥ 70 µM | 225 nM | 13200 nM | 1270 nM | –
ILSKIPYLR | 13.3 nM | 0.0974 µM | 605 nM | 2.54 nM | 30.7 nM | –
IMAYVNQAH | – | – | – | – | – | Kd (HLA-A*68:01; [8]): ≥ 23500 nM; Kd (HLA-A*33:01; [8]): ≥ 36 µM; Kd (HLA-A*03:01; [8]): 2210 nM; Kd (HLA-A*31:01; [8]): 3410 nM; Kd (HLA-A*11:01; [8]): ≥ 26900 nM
IMKNTTNTRR | – | – | – | – | – | Kd (HLA-A*31:01; [9]): 13.9 nM
IVASVNMVSR | – | – | – | – | – | Kd (HLA-A*68:01; [1]): 6.75 nM
IYKGVYQFK | – | – | – | – | – | Kd (HLA-A*68:01; [11]): 8810 nM; Kd (HLA-A*33:01; [11]): 0.0135 µM; Kd (HLA-A*03:01; [11]): 198 nM; Kd (HLA-A*31:01; [11]): 3.21 nM; Kd (HLA-A*11:01; [11]): 718 nM
KFAEESYTYY | 1130 nM | ≥ 42.1 µM | 4860 nM | ≥ 21700 nM | 10200 nM | –
KLGDKGSPYY | 5080 nM | ≥ 39.4 µM | 2.48 nM | ≥ 23100 nM | 3570 nM | –
KLITEWCCR | – | – | – | – | – | Kd (HLA-A*31:01; [9]): 10.3 nM
KLYEEPLSK | – | – | – | – | – | Kd (HLA-A*03:01; source organism: Homo sapiens): 2.5 nM
KSNILMWNK | 2870 nM | 13.7 µM | 27.5 nM | 1.01 nM | 2.25 nM | –
KTDFGFYQVK | – | – | – | – | – | Kd (HLA-A*03:01; [3]): 27.4 nM; Kd (HLA-A*11:01; [3]): 56 nM
KTQFNYFKK | – | – | – | – | – | Kd (HLA-A*68:01; [4]): 2830 nM; Kd (HLA-A*33:01; [4]): ≥ 77.3 µM; Kd (HLA-A*03:01; [4]): 115 nM; Kd (HLA-A*31:01; [4]): 2.32 nM; Kd (HLA-A*11:01; [4]): 2.26 nM
KVDTRTPRAK | – | – | – | – | – | Kd (HLA-A*03:01; [7]): 7.24 nM
KVVKKLSVIR | 482 nM | 3.62 µM | 5120 nM | 56.3 nM | 916 nM | –
LIDLAFLIK | ≥ 77700 nM | ≥ 77.7 µM | 3480 nM | 2330 nM | 462 nM | –
LIIGPMFSGK | 9.92 nM | 2.56 µM | 6.17 nM | 1270 nM | 1.81 nM | –
